Where “and” joins values, the source holds several entries; their conditions need not be identical. Equal values may be shown once.
B1: thioredoxin peroxidase B from human erythrocytes (enzyme, UniProt P32119 1-198, looked up)
chain: MASGNARIGKPAPDFKATAVVDGAFKEVKLSDYKGKYVVLFFYPLDFTFVCPTEIIAFSNRAEDFRKLGCEVLGVSVDSQFTHLAWINTPRKEGGLGPLNIPLLADVTRRLSEDYGVLKTDEGIAYRGLFIIDGKGVLRQITVNDLPVGRSVDEALRLVQAFQYTDEHGEVCPAGWKPGSDTIKPNVDDSKEYFSKHN
B2: anti-TRAP from Bacillus licheniformis (natural protein, UniProt Q65NU7 1-53, looked up)
chain: MVIATDDLETTCPNCNGSGREEPEPCPKCSGKGVILTAQGSTLLHFIKKHLNE

Legend:
AUC + SEC = molecular target: the molecule itself; assay: AUC + SEC
crystal structure [1] = molecular target: the molecule itself; assay: crystal structure
crystal structure [2] = molecular target: the molecule itself; assay: crystal structure; remark: listed apart in the source

Protein | stoichiometry N (AUC + SEC) | stoichiometry N (crystal structure [1]) | stoichiometry N (crystal structure [2])
B1 | 8 and 12 | 10 | 
B2 |  |  | 12

From paper PMC2394828 (Acta Crystallographica Section D: Biological Crystallography, 2007)
